{
  "source": "paper PMC7869511",
  "about": "“Computer-aided design of PVR mutants with enhanced binding affinity to TIGIT” (Cell Communication and Signaling : CCS, 2021)",
  "parents": {"B1": {"name": "Fc-fused protein of human TIGIT [human] / wild type human PVR, full length, on CHO-K1 cells [human] (parent complex)", "chain 1": "MMTGTIETTGNISAEKGGSIILQCHLSSTTAQVTQVNWEQQDQLLAICNADLGWHISPSFKDRVAPGPGLGLTLQSLTVNDTGEYFCIYHTYPDGTYTGRIFLEVLESSVAEHGARFQIP", "chain 2": "WPPPGTGDVVVQAPTQVPGFLGDSVTLPCYLQVPNMEVTHVSQLTWARHGESGSMAVFHQTQGPSYSESKRLEFVAARLGAELRNASLRMFGLRVEDEGNYTCLFVTFPQGSRSVDIWLRVLAKPQNTAEVQKVQLTGEPVPMARCVSTGGRPPAQITWHSDLGGMPNTSQVPGFLSGTVTVTSLWILVPSSQVDGKNVTCKVEHESFEKPQLLTVNLTVYYPPEVSISGYDNNWYLGQNEATLTCDARSNPEPTGYNWSTTMGPLPPFAVAQGAQLLIRPVDKPINTTLICNVTNALGARQAELTVQVKEGPPSEHSGISRNAIIFLVLGILVFLILLGIGIYFYWSKCSREVLWHCHLCPSSTEHASASANGHVSYSAVSRENSSSQDPQTEGTR"}},
  "data": [
    {"variants_of": "B1", "experiment": "flow cytometry on cells; 120 nM hTIGIT-Fc; CHOK1 cells overexpressing hPVR; parent: 1; read off a plot", "values": [
      {"variant": "chain 2 WPPPGTGDVVVQAPTQVPGFLGDSVTLPCYLQVPNMEVTHVSQLTWARHGESGSMAVFHQTQGPSYSESKRLEFVAARLGAELRNASLRMFGLRVEDEGNYTCLFVTFPQVSRSVDIWLRVLAKPQNTAEVQKVQLTGEPVPMARCVSTGGRPPAQITWHSDLGGMPNTSQVPGFLSGTVTVTSLWILVPSSQVDGKNVTCKVEHESFEKPQLLTVNLTVYYPPEVSISGYDNNWYLGQNEATLTCDARSNPEPTGYNWSTTMGPLPPFAVAQGAQLLIRPVDKPINTTLICNVTNALGARQAELTVQVKEGPPSEHSGISRNAIIFLVLGILVFLILLGIGIYFYWSKCSREVLWHCHLCPSSTEHASASANGHVSYSAVSRENSSSQDPQTEGTR", "note": "[chain 2 G111V]", "ratio to parent": "~1.6"},
      {"variant": "chain 2 WPPPGTGDVVVQAPTQVPGFLGDSVTLPCYLQVPNMEVTHVSQLEWARHGESGSMAVFHQTQGPSYSESKRLEFVAARLGAELRNASLRMFGLRVEDEGNYTCLFVTFPQGSRSVDIWLRVLAKPQNTAEVQKVQLTGEPVPMARCVSTGGRPPAQITWHSDLGGMPNTSQVPGFLSGTVTVTSLWILVPSSQVDGKNVTCKVEHESFEKPQLLTVNLTVYYPPEVSISGYDNNWYLGQNEATLTCDARSNPEPTGYNWSTTMGPLPPFAVAQGAQLLIRPVDKPINTTLICNVTNALGARQAELTVQVKEGPPSEHSGISRNAIIFLVLGILVFLILLGIGIYFYWSKCSREVLWHCHLCPSSTEHASASANGHVSYSAVSRENSSSQDPQTEGTR", "note": "[chain 2 T45E]", "ratio to parent": "~0.1"},
      {"variant": "chain 2 WPPPGTGDVVVQAPTQVPGFLGDSVTLPCYLQVPNMEVTHVSQLTWARHGESGSMAVFHQTQGPSYWESKRLEFVAARLGAELRNASLRMFGLRVEDEGNYTCLFVTFPQGSRSVDIWLRVLAKPQNTAEVQKVQLTGEPVPMARCVSTGGRPPAQITWHSDLGGMPNTSQVPGFLSGTVTVTSLWILVPSSQVDGKNVTCKVEHESFEKPQLLTVNLTVYYPPEVSISGYDNNWYLGQNEATLTCDARSNPEPTGYNWSTTMGPLPPFAVAQGAQLLIRPVDKPINTTLICNVTNALGARQAELTVQVKEGPPSEHSGISRNAIIFLVLGILVFLILLGIGIYFYWSKCSREVLWHCHLCPSSTEHASASANGHVSYSAVSRENSSSQDPQTEGTR", "note": "[chain 2 S67W]", "ratio to parent": "~0.82"},
      {"variant": "chain 2 WPPPGTGDVVVQAPTQVPGFLGDSVTLPCYLQVPNMEVTHVSQLTWARHGESGWMAVFHQTQGPSYSESKRLEFVAARLGAELRNASLRMFGLRVEDEGNYTCLFVTFPQGSRSVDIWLRVLAKPQNTAEVQKVQLTGEPVPMARCVSTGGRPPAQITWHSDLGGMPNTSQVPGFLSGTVTVTSLWILVPSSQVDGKNVTCKVEHESFEKPQLLTVNLTVYYPPEVSISGYDNNWYLGQNEATLTCDARSNPEPTGYNWSTTMGPLPPFAVAQGAQLLIRPVDKPINTTLICNVTNALGARQAELTVQVKEGPPSEHSGISRNAIIFLVLGILVFLILLGIGIYFYWSKCSREVLWHCHLCPSSTEHASASANGHVSYSAVSRENSSSQDPQTEGTR", "note": "[chain 2 S54W]", "ratio to parent": "~1.2"}
    ]},
    {"variants_of": "B1", "experiment": "flow cytometry on cells; 120 nM hTIGIT-Fc; CHOK1 cells overexpressing hPVR; parent: 3.2e+03; read off a plot", "units": {"response": "MFI"}, "values": [
      {"variant": "chain 2 WPPPGTGDVVVQAPTQVPGFLGDSVTLPCYLQVPNMEVTHVSQLTWARHGESGSMAVFHQTQGPSYSESKRLEFVAARLGAELRNASLRMFGLRVEDEGNYTCLFVTFPQVSRSVDIWLRVLAKPQNTAEVQKVQLTGEPVPMARCVSTGGRPPAQITWHSDLGGMPNTSQVPGFLSGTVTVTSLWILVPSSQVDGKNVTCKVEHESFEKPQLLTVNLTVYYPPEVSISGYDNNWYLGQNEATLTCDARSNPEPTGYNWSTTMGPLPPFAVAQGAQLLIRPVDKPINTTLICNVTNALGARQAELTVQVKEGPPSEHSGISRNAIIFLVLGILVFLILLGIGIYFYWSKCSREVLWHCHLCPSSTEHASASANGHVSYSAVSRENSSSQDPQTEGTR", "note": "[chain 2 G111V]", "response": "~4900"}
    ]},
    {"variants_of": "B1", "experiment": "flow cytometry on cells; 120 nM hTIGIT-Fc; CHOK1 cells overexpressing hPVR; parent: 3.2e+03; read off a plot", "remark": "another data set of the same source", "units": {"response": "MFI"}, "values": [
      {"variant": "chain 2 WPPPGTGDVVVQAPTQVPGFLGDSVTLPCYLQVPNMEVTHVSQLEWARHGESGSMAVFHQTQGPSYSESKRLEFVAARLGAELRNASLRMFGLRVEDEGNYTCLFVTFPQGSRSVDIWLRVLAKPQNTAEVQKVQLTGEPVPMARCVSTGGRPPAQITWHSDLGGMPNTSQVPGFLSGTVTVTSLWILVPSSQVDGKNVTCKVEHESFEKPQLLTVNLTVYYPPEVSISGYDNNWYLGQNEATLTCDARSNPEPTGYNWSTTMGPLPPFAVAQGAQLLIRPVDKPINTTLICNVTNALGARQAELTVQVKEGPPSEHSGISRNAIIFLVLGILVFLILLGIGIYFYWSKCSREVLWHCHLCPSSTEHASASANGHVSYSAVSRENSSSQDPQTEGTR", "note": "[chain 2 T45E]", "response": "~100"},
      {"variant": "chain 2 WPPPGTGDVVVQAPTQVPGFLGDSVTLPCYLQVPNMEVTHVSQLTWARHGESGSMAVFHQTQGPSYWESKRLEFVAARLGAELRNASLRMFGLRVEDEGNYTCLFVTFPQGSRSVDIWLRVLAKPQNTAEVQKVQLTGEPVPMARCVSTGGRPPAQITWHSDLGGMPNTSQVPGFLSGTVTVTSLWILVPSSQVDGKNVTCKVEHESFEKPQLLTVNLTVYYPPEVSISGYDNNWYLGQNEATLTCDARSNPEPTGYNWSTTMGPLPPFAVAQGAQLLIRPVDKPINTTLICNVTNALGARQAELTVQVKEGPPSEHSGISRNAIIFLVLGILVFLILLGIGIYFYWSKCSREVLWHCHLCPSSTEHASASANGHVSYSAVSRENSSSQDPQTEGTR", "note": "[chain 2 S67W]", "response": "~2600"}
    ]}
  ]
}
